Experimental data reported in patent publication US20240294613A1 (BROAD INSTITUTE, published 2024).

B1: BG7-18 (antibody, V domains shown)
VH: EVQLMESGGGLIQPGGSLRLSCAASGFIVSSNYMSWVRQAPGKGLEWVSVIYSGGGTDYADSVKGRFTISRDNSKNTLFLQMNSLRAEDTAVYYCARGAAMVKELFDYWGQGTQVTVSS
VL: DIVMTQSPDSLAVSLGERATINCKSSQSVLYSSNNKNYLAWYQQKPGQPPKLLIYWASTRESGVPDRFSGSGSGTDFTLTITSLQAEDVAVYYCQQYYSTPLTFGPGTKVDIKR
B2: BG7-15 (antibody, V domains shown)
VH: QVQLVQSGAEVKKPGASVKVSCKASGYTFTSYAISWVRQAPGQGLEWMGWVSAYNGNTNYAQKLQGRVTMTTDTSTNTAYMELRSLRSDDTAIYYCAIPYSSVTFDCWGQGTLVTVSS
VL: EIVLTQSPGTLSLSPGERATLSCRASQSVSGTFLAWYQQKPGQAPRLLISGASSRATGIPDRFSGSGSGTDFTLTISRLEPEDFAVYYCQQYGSSRPTFGQGTKLEIKR

Molecular target: SARS-COV-2 spike on authentic SARS-COV-2 virus (SARS-COV-2, UniProt P0DTC2 14-1273)
Experiment: cell-based or functional assay

Row | Binder | LV IC50 [µg/mL]
1 | B1 | 0.115
2 | B2 | 0.114
